Assay results taken from patent publication US20160024487.

Assays:
[1] = target: T1, Lys(Dnp)-ATNATYSPRIVGG-Lys(Abz)
T1 chain: KATNATYSPRIVGGK

[2] = target: T2, Lys(Dnp)-ATNATAFPRIVGG-Lys(Abz)
T2 chain: KATNATAFPRIVGGK

[3] = target: T3, Lys(Dnp)-ATNATIVPRIVGG-Lys(Abz)
T3 chain: KATNATIVPRIVGGK

[4] = target: T4, Lys(Dnp)-ATNATWQPRIVGG-Lys(Abz)
T4 chain: KATNATWQPRIVGGK

[5] = target: T5, Lys(Dnp)-ATNATMGPRIVGG-Lys(Abz)
T5 chain: KATNATMGPRIVGGK

[6] = target: T6, Lys(Dnp)-ATNATMVPRIVGG-Lys(Abz)
T6 chain: KATNATMVPRIVGGK

[7] = target: T7, Lys(Dnp)-ATNATLYPRIVGG-Lys(Abz)
T7 chain: KATNATLYPRIVGGK

[8] = target: T8, Lys(Dnp)-ATNATWGPRIVGG-Lys(Abz)
T8 chain: KATNATWGPRIVGGK

[9] = target: T9, Lys(Dnp)-ATNATVQPRIVGG-Lys(Abz)
T9 chain: KATNATVQPRIVGGK

[10] = target: T10, Lys(Dnp)-ATNATIQPRIVGG-Lys(Abz)
T10 chain: KATNATIQPRIVGGK

[11] = target: T11, Lys(Dnp)-ATNATFYPRIVGG-Lys(Abz)
T11 chain: KATNATFYPRIVGGK

[12] = target: T12, Lys(Dnp)-ATNATWAPRIVGG-Lys(Abz)
T12 chain: KATNATWAPRIVGGK

[13] = target: T13, Lys(Dnp)-ATNATIWPRIVGG-Lys(Abz)
T13 chain: KATNATIWPRIVGGK

[14] = target: T14, Lys(Dnp)-ATNATPWPRIVGG-Lys(Abz)
T14 chain: KATNATPWPRIVGGK

[15] = target: T15, Lys(Dnp)-ATNATHNPRIVGG-Lys(Abz)
T15 chain: KATNATHNPRIVGGK

[16] = target: T16, Lys(Dnp)-ATNATYRPRIVGG-Lys(Abz)
T16 chain: KATNATYRPRIVGGK

[17] = target: T17, Lys(Dnp)-ATNATWDPRIVGG-Lys(Abz)
T17 chain: KATNATWDPRIVGGK

[18] = target: T18, Lys(Dnp)-ATNATHVPRIVGG-Lys(Abz)
T18 chain: KATNATHVPRIVGGK

[19] = target: T19, Lys(Dnp)-ATNATAMPRIVGG-Lys(Abz)
T19 chain: KATNATAMPRIVGGK

[20] = target: T20, Lys(Dnp)-ATNATRLPRIVGG-Lys(Abz)
T20 chain: KATNATRLPRIVGGK

[21] = target: T21, Lys(Dnp)-ATNATAWPRIVGG-Lys(Abz)
T21 chain: KATNATAWPRIVGGK

[22] = target: T22, Lys(Dnp)-ATNATIDPRIVGG-Lys(Abz)
T22 chain: KATNATIDPRIVGGK

[23] = target: T23, Lys(Dnp)-ATNATSEPRIVGG-Lys(Abz)
T23 chain: KATNATSEPRIVGGK

[24] = target: T24, Lys(Dnp)-ATNATWLPRIVGG-Lys(Abz)
T24 chain: KATNATWLPRIVGGK

[25] = target: T25, Lys(Dnp)-ATNATHPPRIVGG-Lys(Abz)
T25 chain: KATNATHPPRIVGGK

[26] = target: T26, Lys(Dnp)-ATNATGEPRIVGG-Lys(Abz)
T26 chain: KATNATGEPRIVGGK

[27] = target: T27, Lys(Dnp)-ATNATKSPRIVGG-Lys(Abz)
T27 chain: KATNATKSPRIVGGK

[28] = target: T28, Lys(Dnp)-ATNATNRPRIVGG-Lys(Abz)
T28 chain: KATNATNRPRIVGGK

[29] = target: T29, Lys(Dnp)-ATNATWNPRIVGG-Lys(Abz)
T29 chain: KATNATWNPRIVGGK

[30] = target: T30, Lys(Dnp)-ATNATNWPRIVGG-Lys(Abz)
T30 chain: KATNATNWPRIVGGK

[31] = target: T31, Lys(Dnp)-ATNATRYPRIVGG-Lys(Abz)
T31 chain: KATNATRYPRIVGGK

[32] = target: T32, Lys(Dnp)-ATNATDHPRIVGG-Lys(Abz)
T32 chain: KATNATDHPRIVGGK

[33] = target: T33, Lys(Dnp)-ATNATRDPRIVGG-Lys(Abz)
T33 chain: KATNATRDPRIVGGK

[34] = target: T34, Lys(Dnp)-ATNATKLPRIVGG-Lys(Abz)
T34 chain: KATNATKLPRIVGGK

[35] = target: T35, Lys(Dnp)-ATNATRHPRIVGG-Lys(Abz)
T35 chain: KATNATRHPRIVGGK

[36] = target: T36, Lys(Dnp)-ATNATPDPRIVGG-Lys(Abz)
T36 chain: KATNATPDPRIVGGK

[37] = target: T37, Lys(Dnp)-ATNATGLPRIVGG-Lys(Abz)
T37 chain: KATNATGLPRIVGGK

[38] = target: T38, Lys(Dnp)-ATNATQEPRIVGG-Lys(Abz)
T38 chain: KATNATQEPRIVGGK

[39] = target: T39, Lys(Dnp)-ATNATKNPRIVGG-Lys(Abz)
T39 chain: KATNATKNPRIVGGK

[40] = target: T40, Lys(Dnp)-ATNATIPPRIVGG-Lys(Abz)
T40 chain: KATNATIPPRIVGGK

[41] = target: T41, Lys(Dnp)-ATNATFSPRIVGG-Lys(Abz)
T41 chain: KATNATFSPRIVGGK

B1: Human plasma purified Factor Xa (protein)
chain 1: ANSFLEEMKKGHLERECMEETCSYEEAREVFEDSDKTNEFWNKYKDGDQCETSPCQNQGKCKDGLGEYTCTCLEGFEGKNCELFTRKLCSLDNGDCDQFCHEEQNSVVCSCARGYTLADNGKACIPTGPYPCGKQTLER
chain 2: IVGGQECKDGECPWQALLINEENEGFCGGTILSEFYILTAAHCLYQAKRFKVRVGDRNTEQEEGGEAVHEVEVVIKHNRFTKETYDFDIAVLRLKTPITFRMNVAPACLPERDWAESTLMTQKTGIVSGFGRTHEKGRQSTRLKMLEVPYVDRNSCKLSSSFIITQNMFCAGYDTKQEDACQGDSGGPHVTRFKDTYFVTGIVSWGEGCARKGKYGIYTKVTAFLKWIDRSMKTRGLPKAKSHAPEVITSSPLK
In the case of B1, the FXa kcat/KM [1] is reported as 41 M⁻¹ s⁻¹, the FXa kcat/KM [2] is reported as 22 M⁻¹ s⁻¹ and the FXa kcat/KM [3] is reported as 360 M⁻¹ s⁻¹. It also gave an FXa kcat/KM [4] of 37 M⁻¹ s⁻¹, an FXa kcat/KM [5] of 54 M⁻¹ s⁻¹ and an FXa kcat/KM [6] of 100 M⁻¹ s⁻¹. For the same protein, the FXa kcat/KM [7] was 160 M⁻¹ s⁻¹, the FXa kcat/KM [8] was 61 M⁻¹ s⁻¹ and the FXa kcat/KM [9] was 250 M⁻¹ s⁻¹. The FXa kcat/KM [10] was 1700 M⁻¹ s⁻¹, the FXa kcat/KM [11] was 71 M⁻¹ s⁻¹ and the FXa kcat/KM [12] was 42 M⁻¹ s⁻¹. It also gave an FXa kcat/KM [13] of 1500 M⁻¹ s⁻¹ and an FXa kcat/KM [14] of 1300 M⁻¹ s⁻¹.

B2: Human plasma purified Factor Xa (Molecular Innovations, Inc) (protein)
chain 1: B1 chain 1
chain 2: B1 chain 2
For B2, the FXa kcat/KM [15] was 71 M⁻¹ s⁻¹, the FXa kcat/KM [16] was 610 M⁻¹ s⁻¹ and the FXa kcat/KM [17] was 16 M⁻¹ s⁻¹. For the same protein, the FXa kcat/KM [18] was 39 M⁻¹ s⁻¹, the FXa kcat/KM [19] was 460 M⁻¹ s⁻¹ and the FXa kcat/KM [20] was 1400 M⁻¹ s⁻¹. The FXa kcat/KM [21] was 460 M⁻¹ s⁻¹, the FXa kcat/KM [22] was 1300 M⁻¹ s⁻¹ and the FXa kcat/KM [23] was 22 M⁻¹ s⁻¹. The FXa kcat/KM [24] was 460 M⁻¹ s⁻¹, the FXa kcat/KM [25] was 7 M⁻¹ s⁻¹ and the FXa kcat/KM [26] was 87 M⁻¹ s⁻¹. For the same protein, the FXa kcat/KM [27] was 84 M⁻¹ s⁻¹, the FXa kcat/KM [28] was 220 M⁻¹ s⁻¹ and the FXa kcat/KM [29] was 22 M⁻¹ s⁻¹. It also gave an FXa kcat/KM [30] of 86 M⁻¹ s⁻¹, an FXa kcat/KM [31] of 960 M⁻¹ s⁻¹ and an FXa kcat/KM [32] of 5 M⁻¹ s⁻¹. It also gave an FXa kcat/KM [33] of 1400 M⁻¹ s⁻¹, an FXa kcat/KM [34] of 89 M⁻¹ s⁻¹ and an FXa kcat/KM [35] of 2600 M⁻¹ s⁻¹. The FXa kcat/KM [36] was 790 M⁻¹ s⁻¹, the FXa kcat/KM [37] was 78 M⁻¹ s⁻¹ and the FXa kcat/KM [38] was 920 M⁻¹ s⁻¹. For the same protein, the FXa kcat/KM [14] was 1300 M⁻¹ s⁻¹, the FXa kcat/KM [39] was 64 M⁻¹ s⁻¹ and the FXa kcat/KM [40] was 8.5 M⁻¹ s⁻¹. The FXa kcat/KM [41] was 190 M⁻¹ s⁻¹.
